From patent publication US20080199896

Key:
[1] = molecular target: TSC2 fragment containing S1345 (UniProt P49816)
[2] = molecular target: purified TSC2-F2 fragment (AMPK assay, contains T1227) (UniProt P49816)
[3] = molecular target: GST-TSC2 fragment 2 (amino acids 1357-1765) (UniProt P49816)
[4] = molecular target: GST-TSC2 fragment 1 (amino acids 910-1112) (UniProt P49816)

Row | Substance | in vitro phosphorylation by immunoprecipitated kinase [1] | in vitro phosphorylation by immunoprecipitated kinase [2] | in vitro phosphorylation by purified kinase [3] | in vitro phosphorylation by purified kinase [4]
1 | immunoprecipitated AMPK (in vitro kinase assay) | The TSC2 fragment was phosphorylated by immunoprecipitated AMPK, but not the kinase inactive AMPK mutant | In vitro phosphorylation of the purified TSC2-F2 fragment by immunoprecipitated AMPK showed that AMPK specifically phosphorylates TSC2 on T1227 | – | –
2 | GST-Akt (wild type) | – | – | Wild-type Akt, but not the kinase-inactive Akt-KM mutant, efficiently phosphorylated both fragment 1 and fragment 2 of TSC2 in vitro | Wild-type Akt, but not the kinase-inactive Akt-KM mutant, efficiently phosphorylated both fragment 1 and fragment 2 of TSC2 in vitro
